Experimental data taken from patent EP3263700A1.

Key:
Experiment in all cases: cell-based or functional assay
[1] = target: purified human coagulation factor X (zymogen) (human) (UniProt P00742)
[2] = target: purified coagulation factor IX (zymogen)
[3] = target: purified coagulation factor VII (zymogen)

UniProt P00742, sequence (P00742 41-179 limits assumed, chain 1 of 2): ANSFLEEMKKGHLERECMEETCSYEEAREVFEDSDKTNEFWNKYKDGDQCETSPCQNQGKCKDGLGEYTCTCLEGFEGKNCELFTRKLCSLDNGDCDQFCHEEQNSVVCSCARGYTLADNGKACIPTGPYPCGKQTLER
UniProt P00742, sequence (P00742 183-488 limits assumed, chain 2 of 2): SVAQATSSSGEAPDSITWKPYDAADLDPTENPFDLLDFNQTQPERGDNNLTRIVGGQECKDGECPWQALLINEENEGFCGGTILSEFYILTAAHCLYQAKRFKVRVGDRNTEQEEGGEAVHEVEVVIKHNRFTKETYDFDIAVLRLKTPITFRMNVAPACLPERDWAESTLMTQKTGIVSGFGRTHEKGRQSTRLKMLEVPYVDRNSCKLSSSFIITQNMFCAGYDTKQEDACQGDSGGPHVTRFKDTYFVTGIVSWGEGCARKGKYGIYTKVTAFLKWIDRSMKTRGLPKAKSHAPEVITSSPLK

C. canimorsus DPP7 (Capnocytophaga canimorsus 5 dipeptidyl peptidase 7) with a C-terminal Strep-His tag (enzyme)
PT (prothrombin time) in factor deficient plasma [1]: 10 fold | aPTT in factor deficient plasma [2]: 2 fold | PT (prothrombin time) in factor deficient plasma [3]: 30%
